To fix the notation:
T1: Methyl-Coenzyme M Reductase (MCR) chain A (Methanothermobacter marburgensis, UniProt P11558 1-550)
T1 sequence (looked up): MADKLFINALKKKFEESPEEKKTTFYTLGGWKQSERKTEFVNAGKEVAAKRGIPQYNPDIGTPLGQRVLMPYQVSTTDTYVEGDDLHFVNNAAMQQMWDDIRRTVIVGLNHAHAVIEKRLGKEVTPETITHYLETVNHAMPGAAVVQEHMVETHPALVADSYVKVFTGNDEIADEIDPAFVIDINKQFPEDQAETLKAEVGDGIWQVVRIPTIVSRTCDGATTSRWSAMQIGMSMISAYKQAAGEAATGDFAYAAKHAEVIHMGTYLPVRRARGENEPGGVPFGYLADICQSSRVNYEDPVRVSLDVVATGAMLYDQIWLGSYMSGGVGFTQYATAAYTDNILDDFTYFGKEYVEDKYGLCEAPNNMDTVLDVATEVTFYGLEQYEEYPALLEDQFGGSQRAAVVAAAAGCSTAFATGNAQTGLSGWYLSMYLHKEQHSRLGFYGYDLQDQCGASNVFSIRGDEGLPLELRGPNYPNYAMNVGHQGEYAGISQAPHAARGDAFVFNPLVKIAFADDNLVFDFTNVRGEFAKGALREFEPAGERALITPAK

B1: Methyl-Coenzyme M Reductase (MCR) chain B (natural protein, Methanothermobacter marburgensis, UniProt P11560 1-443, looked up)
chain: MAKFEDKVDLYDDRGNLVEEQVPLEALSPLRNPAIKSIVQGIKRTVAVNLEGIENALKTAKVGGPACKIMGRELDLDIVGNAESIAAAAKEMIQVTEDDDTNVELLGGGKRALVQVPSARFDVAAEYSAAPLVTATAFVQAIINEFDVSMYDANMVKAAVLGRYPQSVEYMGANIATMLDIPQKLEGPGYALRNIMVNHVVAATLKNTLQAAALSTILEQTAMFEMGDAVGAFERMHLLGLAYQGMNADNLVFDLVKANGKEGTVGSVIADLVERALEDGVIKVEKELTDYKVYGTDDLAMWNAYAAAGLMAATMVNQGAARAAQGVSSTLLYYNDLIEFETGLPSVDFGKVEGTAVGFSFFSHSIYGGGGPGIFNGNHIVTRHSKGFAIPCVAAAMALDAGTQMFSPEATSGLIKEVFSQVDEFREPLKYVVEAAAEIKNEI
B2: Methyl-Coenzyme M Reductase (MCR) heterotrimer of chains A, B and C, MCRred1-silent Ni(II) form (complex, Methanothermobacter marburgensis)
chain 1: T1 sequence (looked up)
chain 2: B1 chain
chain 3: MAQYYPGTTKVAQNRRNFCNPEYELEKLREISDEDVVKILGHRAPGEEYPSVHPPLEEMDEPEDAIREMVEPIDGAKAGDRVRYIQFTDSMYFAPAQPYVRSRAYLCRYRGADAGTLSGRQIIETRERDLEKISKELLETEFFDPARSGVRGKSVHGHSLRLDEDGMMFDMLRRQIYNKDTGRVEMVKNQIGDELDEPVDLGEPLDEETLMEKTTIYRVDGEAYRDDVEAVEIMQRIHVLRSQGGFNLE
B3: Methyl-Coenzyme M Reductase (MCR) chain C (natural protein, Methanothermobacter marburgensis, UniProt P11562 1-249, looked up)
chain: B2 chain 3

Common to all, as to test: crystal structure
For data set [1], the target named is T1, Methyl-Coenzyme M Reductase (MCR) chain ….
The data set “crystal structure” deals with the molecule itself.
For data set [2], the target named is B1.

In general, stoichiometry N refers to the number of molecules, sites or subunits per partner or assembly.

For B1, in data set [1], the binding result was “binds”.
B2: the “stoichiometry N” value in the data set “crystal structure” is 2.
Turning to B3, the binding result in data set [2] and in data set [1] was “binds” each time.

The values above are taken from paper PMC8930625 (Journal of inorganic biochemistry, 2022).
